Test [1] has as its target HLA-A*68:02. Description: IEDB peptide-MHC binding, purified MHC/competitive/fluorescence; filed as Kd, often an IC50 or EC50 that approximates it; ≥ and ≤ were set here for values at or beyond the usual limits of such assays. The note with it: source organism: Entamoeba histolytica HM-1:IMSS.
For another test, the target named is HLA-C*06:02. Description: IEDB peptide-MHC binding, purified MHC/direct/fluorescence; filed as Kd, often an IC50 or EC50 that approximates it; ≥ and ≤ were set here for values at or beyond the usual limits of such assays.
The target of another test is HLA-A*26:01. Description: IEDB peptide-MHC binding, purified MHC/competitive/fluorescence; filed as Kd, often an IC50 or EC50 that approximates it; ≥ and ≤ were set here for values at or beyond the usual limits of such assays.
In another test the target is HLA-A*01:01. The description is as above.
In test [2] the target is HLA-B*15:01. The description is as above.
The target of a further test is HLA-B*35:01. The test is described as above.
The next test addresses HLA-B*39:01. The description is as above.
A further test deals with HLA-B*51:01. The description is as above.
The next test deals with HLA-C*05:01. Description: IEDB peptide-MHC binding, purified MHC/direct/fluorescence; filed as Kd, often an IC50 or EC50 that approximates it; ≥ and ≤ were set here for values at or beyond the usual limits of such assays.
A further test concerns the target HLA-C*03:03. Described as above.
The next test has as its target HLA-C*12:03. The description is as above.
The next test deals with HLA-B*45:06. Description: IEDB peptide-MHC binding, purified MHC/competitive/fluorescence; filed as Kd, often an IC50 or EC50 that approximates it; ≥ and ≤ were set here for values at or beyond the usual limits of such assays.
The next test has as its target HLA-A*02:01. Described as above.
In a further test the target is HLA-B*83:01. The description is as above.
Another test deals with HLA-B*15:42. The description is as above.
The next test concerns the target HLA-A*69:01. Described as above.
In another test the target is HLA-B*18:01. Described as above.
In the next test the target is HLA-B*27:03. The test is described as above.
For another test, the target named is HLA-B*58:01. The test is described as above.
The target of another test is HLA-B*46:01. Described as above.
The next test addresses HLA-A*02:11. Description: IEDB peptide-MHC binding, purified MHC/direct/fluorescence; filed as Kd, often an IC50 or EC50 that approximates it; ≥ and ≤ were set here for values at or beyond the usual limits of such assays.
The target in a further test is HLA-A*02:03. The description is as above.
The target in another test is HLA-A*02:16. The test is described as above.
The next test addresses HLA-A*29:02. The description is as above. Particulars: source organism: Maciel virus.
Test [3] addresses HLA-A*03:01. The description is as above.
A further test deals with HLA-A*02:19. The description is as above.
Another test has as its target HLA-A*02:12. Described as above.
For test [4], the target named is HLA-A*03:01. Description: IEDB peptide-MHC binding, purified MHC/competitive/fluorescence; filed as Kd, often an IC50 or EC50 that approximates it; ≥ and ≤ were set here for values at or beyond the usual limits of such assays. The note with it: source organism: Salmonella enterica subsp. enterica serovar Typhi.
For the next test, the target named is HLA-B*07:02. Description: IEDB peptide-MHC binding, purified MHC/direct/fluorescence; filed as Kd, often an IC50 or EC50 that approximates it; ≥ and ≤ were set here for values at or beyond the usual limits of such assays. The note with it: source organism: Mammarenavirus juninense.
A further test concerns the target HLA-B*53:01. Description: IEDB peptide-MHC binding, purified MHC/competitive/radioactivity; filed as Kd, often an IC50 or EC50 that approximates it; ≥ and ≤ were set here for values at or beyond the usual limits of such assays. Particulars: source organism: Mammarenavirus juninense.
The target of a further test is HLA-B*54:01. The test is described as above. Particulars: source organism: Mammarenavirus juninense.
In another test the target is HLA-A*24:02. Description: IEDB peptide-MHC binding, purified MHC/competitive/fluorescence; ≥ and ≤ were set here for values at or beyond the usual limits of such assays. Particulars: source organism: Zaire ebolavirus.
In a further test the target is HLA-A*68:23. Description: IEDB peptide-MHC binding, purified MHC/competitive/fluorescence; filed as Kd, often an IC50 or EC50 that approximates it; ≥ and ≤ were set here for values at or beyond the usual limits of such assays. Particulars: source organism: Zaire ebolavirus.
The target of another test is HLA-A*32:15. The description is as above. The note with it: source organism: Zaire ebolavirus.
The target of another test is HLA-A*32:07. The description is as above. The note with it: source organism: Zaire ebolavirus.
Test [5] addresses HLA-A*68:02. Description: IEDB peptide-MHC binding, purified MHC/direct/fluorescence; filed as Kd, often an IC50 or EC50 that approximates it; ≥ and ≤ were set here for values at or beyond the usual limits of such assays. The note with it: source organism: Zaire ebolavirus.
Test [6] deals with HLA-B*15:01. Described as above. Particulars: source organism: Zaire ebolavirus.
Setting [7] is: source organism: Escherichia coli O139:H28 str. E24377A.
Where [8] appears, read: source organism: Yersinia pestis Nepal516.
[9] abbreviates: source organism: Salmonella enterica subsp. enterica serovar Typhi.
Setting [10] is: source organism: Salmonella enterica subsp. enterica serovar Typhi str. CT18.
[11] abbreviates: source organism: Lechiguanas virus.
Setting [12] is: source organism: Mammarenavirus juninense.
Setting [13] is: source organism: Zaire ebolavirus.

In general, Kd refers to a measure of binding affinity in units of concentration. Take CAMFWYHYI: the Kd with HLA-A*68:02 [1] is 7.2 nM; in the test with HLA-C*06:02 (source organism: Entamoeba histolytica HM-1:IMSS), 1260 nM.
As for EIVAEYITY, the Kd with HLA-A*26:01 (setting [7]) was 41.6 nM; with HLA-A*01:01 (setting [7]), ≥ 20000 nM; with HLA-B*15:01 [2] (setting [7]), 156 nM; in the test with HLA-B*35:01 (setting [7]) it was 6.6 nM.
Take FASASSYAI: the Kd with HLA-B*39:01 (setting [8]) was 7.4 nM; with HLA-B*51:01 (setting [8]), 3780 nM; with HLA-B*35:01 (setting [8]), 0.4 nM; in the test with HLA-C*05:01 (setting [8]), 866 nM; with HLA-C*03:03 (setting [8]), ≤ 1 nM; in the test with HLA-C*12:03 (setting [8]), 105 nM.
In the case of FVVDTTPPL, the Kd is ≥ 5000 nM in the test with HLA-B*45:06 (setting [9]); 0.2 nM with HLA-A*02:01 (setting [9]); 7 nM with HLA-B*39:01 (setting [9]); ≥ 5000 nM with HLA-B*83:01 (setting [9]); ≥ 5000 nM with HLA-B*15:42 (setting [9]); ≤ 0.1 nM in the test with HLA-B*35:01 (setting [9]). The Kd with HLA-C*05:01 (setting [10]) was 1100 nM; with HLA-C*03:03 (setting [10]) it was 2 nM; with HLA-C*12:03 (setting [10]) it was 372 nM.
Turning to HTQAIEGAW, the Kd with HLA-A*69:01 (setting [11]), with HLA-A*02:01 (setting [11]), in the test with HLA-B*39:01 (setting [11]), with HLA-B*18:01 (setting [11]), in the test with HLA-B*51:01 (setting [11]) and with HLA-A*26:01 (setting [11]) was ≥ 20000 nM each time. Also, the Kd is ≥ 20000 nM with HLA-B*27:03 (setting [11]); 1.3 nM with HLA-B*58:01 (setting [11]); ≥ 20000 nM in the test with HLA-B*46:01 (setting [11]); ≥ 20000 nM with HLA-B*15:01 [2] (setting [11]); ≥ 20000 nM with HLA-A*02:11 (source organism: Maciel virus); ≥ 20000 nM with HLA-A*02:03 (source organism: Maciel virus). For the same sequence, the Kd in the test with HLA-A*02:16 (source organism: Maciel virus), in the test with HLA-A*29:02, with HLA-A*03:01 [3] (source organism: Maciel virus), with HLA-A*02:19 (source organism: Maciel virus) and with HLA-A*02:12 (source organism: Maciel virus) was ≥ 20000 nM each time.
Take HVCYFSHPY: the figures for the Kd with HLA-A*03:01 [4] and with HLA-B*35:01 (setting [9]) were ≥ 20000 nM and 0.7 nM, respectively.
Turning to IGILHLILW, the Kd in the test with HLA-B*58:01 (source organism: Influenza A virus (A/Memphis/1/1978(H1N1))) amounted to 3270 nM.
As to ITDWLNFTL, the Kd was determined as 2.2 nM in the test with HLA-A*02:01 (setting [9]), 123 nM with HLA-B*58:01 (setting [9]), 977 nM in the test with HLA-A*01:01 (setting [9]) and 213 nM with HLA-C*05:01 (setting [10]).
Take LAAEEILTL: the Kd in the test with HLA-A*02:01 (setting [7]) was 164 nM; with HLA-B*39:01 (setting [7]), ≥ 20000 nM; in the test with HLA-B*58:01 (setting [7]), 748 nM; in the test with HLA-B*15:01 [2] (setting [7]) it was ≥ 20000 nM; with HLA-C*03:03 (setting [7]) it was ≤ 1 nM; in the test with HLA-C*12:03 (setting [7]) it was 10 nM.
Consider LPTTITVPV, for which the Kd in the test with HLA-B*51:01 (setting [12]) was 700 nM; with HLA-B*35:01 (setting [12]), ≤ 0.1 nM; in the test with HLA-B*07:02, 824 nM; with HLA-B*53:01, 127 nM; in the test with HLA-B*54:01, 9 nM.
One may read the IC50 as the concentration that gives 50% inhibition. Read a high IC50 as weaker potency. The sequence TTIGEWAFW had an IC50 with HLA-A*24:02 of 113 nM. The Kd with HLA-A*69:01 (setting [13]) is ≥ 20000 nM; with HLA-B*45:06 (setting [13]), ≥ 5000 nM; with HLA-A*68:23 it was 1.6 nM; in the test with HLA-A*02:01 (setting [13]) it was ≥ 20000 nM; with HLA-B*39:01 (setting [13]), ≥ 20000 nM; in the test with HLA-B*18:01 (setting [13]), ≥ 20000 nM. Besides, the Kd in the test with HLA-A*32:15 was 26.9 nM; in the test with HLA-B*83:01 (setting [13]) it was ≥ 5000 nM; with HLA-A*32:07 it was 3.3 nM; in the test with HLA-B*15:42 (setting [13]), ≥ 5000 nM; with HLA-A*26:01 (setting [13]), ≥ 20000 nM; with HLA-B*27:03 (setting [13]), ≥ 20000 nM. Also, the Kd is 0.3 nM in the test with HLA-B*58:01 (setting [13]); ≥ 20000 nM with HLA-B*46:01 (setting [13]); ≥ 20000 nM with HLA-A*02:11 (setting [13]); ≥ 20000 nM in the test with HLA-A*02:03 (setting [13]); ≥ 20000 nM with HLA-A*02:16 (setting [13]); ≥ 20000 nM with HLA-A*03:01 [3] (setting [13]). Also, the Kd in the test with HLA-A*02:19 (setting [13]), in the test with HLA-A*68:02 [5], with HLA-B*15:01 [6] and in the test with HLA-A*02:12 (setting [13]) was ≥ 20000 nM each time.
In the test with HLA-C*06:02 (source organism: human gammaherpesvirus 4), YARYVLQKL showed a Kd of 874 nM.

Values taken from the Immune Epitope Database (IEDB).
